Drawing on publication PMC10528150, this text covers Activity in the cytochrome c oxidase reaction, % of WT and Activity, s^−1, in the cytochrome c oxidase reaction (oxygen uptake by solubilized CcO with ascorbate and TMPD, 25 °C) for 2 substances.

The target of the assay is cytochrome c oxidase (ferrocytochrome c:oxygen oxidoreductase), solubilized complex.

Substance “cytochrome c with substitutions E69K/K72E (from UniProt P00004 1-105) (natural protein)” had an Activity in the cytochrome c oxidase reaction, % of WT of 25%; an Activity, s^−1, in the cytochrome c oxidase reaction (oxygen uptake by solubilized CcO with ascorbate and TMPD, 25 °C) of 54 s⁻¹.
In the same order, the values of “cytochrome c with substitutions K8E/E69K/K72E/K86E/K87E (from UniProt P00004 1-105) (natural protein)” are less than 1% and less than 1 s⁻¹.
